Test: soluble fraction after stress (log2 fold change); higher = more stays soluble; pooled small domains, quantitative proteomics
Conditions: stress: 50 degC
Method in brief: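 Custom libraries of small protein domains were pooled and measured in a high-throughput format, with quantitative proteomics as the read-out. Each library was stressed at 50°C. The value is the log2 fold change in the amount of each protein that stays soluble after stress, used as a measure of aggregation propensity; higher values mean more of the protein stays soluble.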

Sequence | soluble fraction (log2)
HMADRLITLSEVASLLRVSRHTVQAWISPSSPNHRPEFAIMARHAGRRTVFIEAEVTAWLDQRRG | -1.95
HMDLEMLEVEDTIKDLLSQHQKINAIKYYRNYMSEQLNVDMGLRQAKDTIDAIGRGATVDLSVGY | -0.0705
HMNSGFEVFREVVNQGSFIGAANALGISAPAVSKQIKLLENRLGLLLLYRTTRNVTLTDIGKQLFDTLDNS | -1.97
HMGIAEGSSVFVRVLAAEDGGRYTVSFAGRRFSVLSRQALGIGSAFRADVKVEKGQVLLVPR | -2.37
HMRMSRSARLFDLLHILRSHRRAVSGQALAQQLGISIRTLYRDIASLQAQGAKIEGEPGVGYMLKP | -0.947
HMTVLVPNLTGKTLLEAEILLDQAGLKKGDVYSESNKNVPKDHIIRQKPAPNTKIQKGATIDIYRSLGPE | 0.133
HMFAVPAPEVDDILSEKKVDVLLLGPQVRYLLEQFTEKLKDKNIPIGVIPMVDYGMMNGSKVLALAEELIG | -0.0132
HMATIADILAEHKDKEGPLLPVLHDVQKMFGHVSEEAMREIAQALNLTRAEVYGVVSFYHDFRKEVE | -0.975
HMSVPRVWTDIQGRRVKGDFEGLRGDLVVLRVGGKSYAFPLVRLIASDQAYARSLVAGNPSK | -0.499
HMTGREIDQLFSVVNDLKAKGVGMVFISHHLDEIARIADSVSVLRDGGFVAEVPASTPEKKLVTLMVGRDI | -0.208
HMKLSIGGTIEKLRRNKGLSHQQLANALGVTPDTVEKWEINAAYPDITLLSPIARLLGTTLDALLMF | -0.649
HMEVSTRQVRAALRDIIEAEDKKRPLSDEAITARLREQGLPVARRTVAKYREQMGILAARLRK | -0.309
HMLPLPRFASLDSSEANLRAGPGKDYPILWVYQRKGLPVEIIQEFDTWRRIRDRDGTVGWVQQNLL | -0.405
HMSRKERERSQHRRDILAAGEKIFAQKGYFNATIEEIAREAEFSVGTIYNFFSNKETLYQEIIRSI | -0.298
HMKTRNISGNHEAVWQAVRSRTQAGHPTTRAVIMDDLKAQGLNTQKFSRWLKKLVDDGSVYMDGDTIIMGK | -0.186
HMKRFSPPSIEEVDSYIREKGYTVDAERFVNFYESKGWYVGKNKMKNWRAAVATWQKEDNKRN | 0.199
HMSKFSDTLVYLRKRAGFSQQELADKMEVSRSLVGMYESGQRMPSYEMLEALADIFNVNIDFLTGH | -0.418
HMGKDIYLTSGWVEKFDELNEFSNSVDNYDRLNQFGMYENAIIGDTGVIKITDEMIFDLYEKIQVPVEAGP | -0.185
HMDKELILLWDRVKSKVWQMDIQDSQVANWFQRNYHLTVRLRDFDPPVPPDKFTAEQLASFIKDIERHT | -0.597
HMDSIDIDAETKSLGPNAPQIIKGIKEWGQGLVAKGVWSDQDFEEFKVFAATANGINALNKVRKFY | -0.154
HMVVGYRYVTNVANAVNFRQKPSASSTIITTIPYGTRIGYVEDANSEYARVKYDNMYGYVAKFYLSNYSPP | -3.27
HMKNENSLLVSRLAEEKIINRAKLVLMEYLKLSEPQAHRYIEKQAMDLQISRAEVAARVLETYE | -0.0477
HMYLSNPTYRGDSLVDALTQIGVDASFASRRDLARKNGIENYTGSAKQNLELLQLLREGRLR | 0.374
HMQFYSGLEARLMDPNTPEVFDDPISLMAFLQQKNISRVELEDNLLLPYLKEMAGQPIPKAELLEIIRK | -0.475
HMKPRVTVVTLGVDDLERAVRFYAEGLGFPTEGIVGREFEFGAVAFFDMQPGLRLALWPRRSLAHDSGLP | -0.306

Sequence | soluble fraction (log2)
HMFWEGYLAARREQFLKDQQVLLGNEFRSNPDFWLEVASKEWAVVEERLSTGADVSEEVQETMGLDF | -2.16
HMSLPKIVVPTDVTVSQLAKYLEVDAISIIKQLFGMGVVASLNQRLEDEIIQLIGNEFGKEIIFSE | -0.054
HMIYYTEEELVKRYIDFSNYLGKKEGASDVDFKKYAVEFGIPSRDHYNRKFITLFNLKIKAGYKPIRH | -0.763
HMPTMTDIPIKIIRSRRRTLAIEVREGGEVIVRAPLYSRKAEIDAFVKAHENWIITKYNLMITKQN | -1.74
HMTRKQTIYEFLRRMKSQHGLDAVYSTEEIANAVGVSRANVSSDLNRLFEEQLVEKLPGWPVKYRA | 0.0186
HMTFAPTAIPSLTRPMEELMSWSFTPNEAFILSRINGLWDVRSIAKISPFPEGEVLRVFEKLHDGGLIRW | -2.92
HMRSVLSDEIYLLIRKMIFNYEILPGAKVNIDALAKKLDVSQTPVREALSRLESDGLIVKEPLKGFRATD | -0.875
HMNMNDIKFGKYLKRVRKKYNFSKEYVANILKVKESLVSDWESGRLTLNDEYMEKLSLFYGVNLYKK | -0.863
HMRESPYRRVAKFLLLIGTAEAAKIVSRLDQDQVEKVMLELSGIRSVPRDEATVILAEFESLLQQAR | -1.47
HMIVSVPNVRGMGESKAAAALQNRGLLVSIDYESSTSASQGEVIRQSISPGTEVTKGSSITIIIAVSPN | -0.0262
HMGAGKVVDGVTYDFVFDVDVADGQPPLRLPYNRGEDVYQAAERFILRNELPATYREQIVNFIVQNTPG | -0.131
HMWMTAQDFRNSSLPWSATTSYNEGQSVRVVDGSNTYYYIAIVKTQPGQSPTTHPTSWREVDA | -0.99
HMTKMTPNRQLVLSVLQSSGKPLSAYELLDRLREQGTQWQPPTAYRALDYLVEQGLAHYLQSIQKYV | -1.1
HMDPNAITSAQVTKLQVLANEKGFAERQARLTMWAEVIGRNVGTANELTKAEAHKLIEHMDALPV | -0.488
HMGSGQIRYITENTVRVVYGTSKENEFVFQDGKPYPKDTPYHIHYTRNLEEYFMSGVEHDKNSKIILKVD | -0.803
HMGTVFTDIMTDIASGKFPNVFPDSLEAQIQKNVTMAPDKLSATLQYGDKSVILPTTKGKEAAEAAVKAA | -0.0555
HMSSEITYDKFIEMVDKDQVKEVTLQSGVLTVVPKIQKSYYQNASYKVNQMEDVDALTKRLEGTGIVFHY | -0.0487
HMQAPHLALSPREFQVLQGLLAGDALDIIAERLHLSAKTVSNHQTLIRQKLGVGNAVELLRYAQLHRL | -2.15
HMHVYSYPAAVKIKNAVGREMMVTLLGRSGTHVQFARQDGEEFVYPISSLDLAAQTLISKYPNDGIKN | -0.444
HMRSHLSANLQRLRHIAGLTQKDLALAANLPRATLASLEQGEANPRLDTLLAVASALQVGLDELIAAP | -0.866
HMQAGPEDIIRAKLKTAMPEAQIISIRPTPAGLYQVNAKGYESVFVTADGRYLFQGDLLEIQGDRIVNL | -0.123
HMALLSNTVDELHAGMRLDSYLFESGLYPSRSFAVKQIEAGKVFLNGDAVTKKTLVSNGDFIVYELEE | -0.778
HMVSVEINTVERDETFRKMFTSGWKPENRIQALAVEQAKKNGLGRMSEVAGLASFRGIWKQATEQVALEA | -0.12
HMGPTLTDEEEVVLNLLEKNHPVLLSELKENAGLSNKKWDKAIKGLSAHKLAKVTKTDDGLFVHLS | 0.0395
HMDTAGSVAIVSKSVIENGFGEIKYKGTYFKAQSDVYIPKDQMVKVIGKGDEQGSFLIVEKLN | -0.0425

Sequence | soluble fraction (log2)
HMSALAQDGDLVQLQGAGYKSHILRLKAGEVLQTHRGVIQHDAVIGQPWGARLQSHTGSPFYLFQPGLADL | -0.522
HMRTKEGLASQLEKIPGIGPVKRKALLKKFGSIDAIAAASKEELMLTDGITSSLADAIRDYF | 0.00122
HMNPNYIKKLREKNQLTQEYLAAQIGVSRPTYAQIEQGQRGLTVTEAKKMADIFSLALDDFLAEKN | 0.0013
HMGGEGQIEIREREGIPAEAWVDGVMRGQTPLRVEHVSIGTRRVELRAEGRPPVAADVLVRPTVTALVELS | 0.271
HMDDDIKNALDVLPEQYRMTVYYADVEGLAYKEIGAIMNTPIGTVMSRIHRGRSQLRVLLAAVAADR | -0.0377
HMGSKKITIYVSGEVKNPGIVTLNSDQRLASAVEKLGGVTENADMNNINLAMKLEDEMHYIIPKKGEK | 0.28
HMQVITEPFQEKYREFINMSTVTQRLEERETLSFTAQTVEGRWLTIIIVPQGYDKTGKLSTVLVANR | 0.179
HMTWDSFIGYTVTDVQKGYLGEITDVDETTINVLLRVDHKGEELLIPAVEELITEADHEARSLTVSLPEGL | -0.0571
HMTEWSIHEVAQRSGVTTRTLRHYDAIGILSPTRTGANGYRYYGPEALVRLQRILLLRDLGLALSDIAE | -4.61
HMDAEVEHLFRIIAELKEKNVAIIYISHKMDEIFRISDDITVYRDGEYIATDRAENLNVDKVIQLMVGREV | -0.339
HMYINVQNARTIASFRSSLWRMHRDFTNQGYITADGLKTFLEMGKLYEDAGGNDIYHSKLLPEITALEIKY | -0.76
HMEQKISVPALVGRDIEEILADTEVTGNFTIKEADKRVASNRPVGEVLEQDPGTGESAVKGTIITVTVSAG | 0.0124
HMIDYTDTSAVKDSAAVAGRVREMINEGVPIADVNAFIRSASENGLISDDSARRLRYMNDSR | 0.0307
HMGDWITGTVTRIADNGWGTFQPENAHNTVSIPPKMVADNQLKEADSIKIIAEPSPDGTKTFIKAISRE | -0.00712
HMGEEIRTWTDAQGRKIEARMSMLDGDQVLLELKDGRKIPYPLAKLSADDAHYARHFASASASD | 0.0254
HMKAGEDAVQKAVLEAVAESAAAVADYKAGSERALNFIVGKVMKKTRGKASAAEVHRLVREEVDR | 0.0904
HMGYKDIDKLSGVDLAIYRFIVEHDEQIPYMRVRELARGAHVSNSSVMRFIRKIGYDSFPEFKVSLRS | 0.0102
HMALDSQEVGYNIEARGARPVVAQLGKAGQFSAVENSIRLGDDNWIALAPKLAGGGNAGFTAGIKSALS | 0.0371
HMLPSMENWLGELSFWQTPWWERRDFSTFDNIAQSKEELDEFMSRDDNGAILERMQDPINTIEAE | -0.46
HMAGEDPANLELMRLMDEEYMEHPTKGVLGMVDFLRALGILTGPKRVRRLLRKMGIMAIYPK | -0.0379
HMKVSKNKIVKGMGFHHVALKAVDFDASFKFYTEGLGMKFYTSWGEGNGKIAMLDLGDGGILELFA | 0.0801
HMDFFVLVGAYKTPDEAETIRAKIAFSGLDSSVSHGNDGRYRVRIGPFHSEGDARKAQSTLRANDIPGQII | -0.0926
HMGPTPTSAQLTEAKRLRTKLDDLNPELAERLWSEHREPYTETQYQTLIEKLAAEVQSAEGEIGR | 0.182
HMAQTEIIRVTKDIKKGDAITADKFEKVKVGAYNLPGNVVKNADELKGKFAAADLVRGDYILTSKLTDNP | 0.146
HMSLPAYIKISEVIARRINAGQILAGDRLPNERTMAVEFGVAVGTLRKALYHLQVRGLVTRKHGSGNYINK | -0.177
